T1: human IL-2Rγ (common cytokine receptor γ-chain) (human, UniProt P31785 23-262, limits assumed)
T1 construct: Recombinant protein coated on the plate or immobilised on a CM5 chip; also called hu IL-2R; CD132
T1 sequence: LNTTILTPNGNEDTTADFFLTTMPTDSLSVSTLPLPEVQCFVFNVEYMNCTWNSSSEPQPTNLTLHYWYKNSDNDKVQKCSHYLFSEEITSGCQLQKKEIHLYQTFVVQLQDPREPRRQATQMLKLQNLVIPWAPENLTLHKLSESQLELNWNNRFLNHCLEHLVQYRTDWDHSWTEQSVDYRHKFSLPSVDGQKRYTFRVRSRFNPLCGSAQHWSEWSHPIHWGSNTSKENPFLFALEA


Assays:
[1] = biological target: T1, human IL-2Rγ (common cytokine receptor …); assay: PE binding ELISA, periplasmic extract on coated protein
Protocol: In a binding ELISA, human or mouse IL-2Rα, IL-2Rβ and IL-2Rγ proteins were coated directly on maxisorp microtiter plates overnight at 4° C. Free binding sites were blocked using 4% Marvel in PBS for 1 hour. Next, 1:5 dilution of P.E. in 1% Marvel/PBS were added to wells and incubated for 1 hour. […] Binding specificity was determined based on O.D. at 450 nm values compared to negative controls.

[2] = biological target: T1, human IL-2Rγ (common cytokine receptor …); assay: SPR off-rate ranking, periplasmic extract on immobilised protein
Protocol: SPR was performed to determine dissociation rates using Biacore 3000 instrument (GE Healthcare). Briefly, human and mouse IL-2R proteins were immobilized on carboxylmethyl dextran sensor chip (CM5) at approximately 2500 RUs using amine coupling in acetate buffer (GE Healthcare). The VHH-containing P.E. were loaded with a flow rate of 30 uL/min and the off-rates were measured over a 120s period.

| OD (PE binding ELISA) [1] [OD450 nm] | koff [2] [s⁻¹] | Binder |
| --- | --- | --- |
| 0.196 | 0.0026 | FJ1427_P035MP04F02 (VHH, VHH in periplasmic extract; also called clone nr) VHH: QLQLVESGGGLVQAGGSLTLSCAASGRTFSRDVVGWFRQAPGKEREFVASISRSGDGTFYTDSVKGRFTISSRDNAKNTVLLQMNSLKVEDTAVYYCAAGDGWSTYDYWGQGTQVTVSS |
| 0.751 | 0.0147 | FJ1427_P035MP04F10 (VHH, VHH in periplasmic extract; also called clone nr) VHH: QLQLVESGGGWVQVGESLRLSCVPSGRTFVSGIMGWFRQAPGKEREFVARIISNNNSTRYTDSVKGRFTISRDSAKNTMYLQMNTLRPEDTAVYYCAARDRYGSGNSLSPSAYDYWGQGTQVTVSS |
| 1.8 | 0.00998 | FJ1427_P035MP04H10 (VHH, VHH in periplasmic extract; also called clone nr) VHH: QVQLVESGGGLVQAGGSLRLSCAPSGRTFVSGIMGWFRQAPGKEREFVARIILNNNSTRYIDSVKGRFTISRDSAKNTMYLQMDSLRPEDTAVYYCAARDRYGSGNSLSPSAYDYWGQGTQVTVSS |
| 1.4 | 0.0116 | FJ1427_P035MP04G11 (VHH, VHH in periplasmic extract; also called clone nr) VHH: QVQLVESGGGWVQVGESLRLSCAPSGRTFVSGIMGWFRQAPGEEREFVARIILNNNSTRYTDSVKGRFTISRDSAKNTMYLQMNTLRPEDTAVYYCAARDRYGSGNSLSPSAYDYWGQGTQVTVSS |
| 0.933 | 0.00744 | FJ1427_P035MP04G03 (VHH, VHH in periplasmic extract; also called clone nr) VHH: EVQLVESGGGWVQVGESLRLSCAPSGRTFVSGIMGWFRQAPGKEREFVARIILNNNSTRYTDSVKGRFTISRDSAKNTMYLQMDSLRPEDTAVYYCAARDRYGSGNSLSPSAYDYWGQGTQVTVSS |
| 1.87 | 0.0222 | FJ1427_P035MP04H09 (VHH, VHH in periplasmic extract; also called clone nr; 360) VHH: EVQLVESGGGWVQVGESLRLSCAPSGRTFVSGIMGWFRQAPGKEREFVARIILNNNSTRYTDSVKGRFTISRDSAKNTMYLQMNTLRPEDTAVYYCAARDRYGSGNSLSPSAYDYWGQGTQVTVSS |
| 0.839 | 0.0104 | FJ1427_P035MP04G10 (VHH, VHH in periplasmic extract; also called clone nr; 367) VHH: QVQLVESGGGWVQVGESLRLSCAPSGRTFVSGIMGWFRQAPGKEREFVARIILNSNSTRYTDSAKGRFTISRDSAKNTMYLQMDSLRPEDTAVYYCAARDRYGSGNSLSPSAYDYWGQGTQVTVSS |
| 1.77 | 0.0103 | FJ1427_P035MP04H11 (VHH, VHH in periplasmic extract; also called clone nr) VHH: QVQLVESGGGWVQVGESPRLSCAPSGRTFVSGIMGWFRQTPGKEREFVARIILNNNSTRYTDSVKGRFTISRDSAKNTMYLQMNTLRPEDTAVYYCAARDRYGSGNSLSPSAYDYWGQGTQVTVSS |
| 1.84 | 0.00892 | FJ1427_P035MP04G08 (VHH, VHH in periplasmic extract; also called clone nr) VHH: QVQLVESGGGWVQVGESLRLSCAPSGRTFVSGIMGWFRQAPGKEREFVARIILNNNSTRYTDSVKGRFTISRDSAKNTMYLQMDSLRPEDTAVYYCAARDRYGSGNSLSPSAYDYWGQGTQVTVSS |
| 1.77 | 0.00795 | FJ1427_P035MP04F09 (VHH, VHH in periplasmic extract; also called clone nr) VHH: QVQLVESGGGWVQVGESLRLSCAPSGRTFVRGIMGWFRQAPGKEREFVARIILNNNSTRYTDSVKGRFTISRDSAKNTMWLQMDSLRPEDTAVYYCAARDRYGSGNSLSPSAYDYWGQGTQVTVSS |
| 2.01 | 0.0111 | FJ1427_P035MP04F11 (VHH, VHH in periplasmic extract; also called clone nr) VHH: QVQLVESGGGWVQVGESLRLSCAPSGRTFVSGIMGWFRQTPGKEREFVARIILNNNSTRYTDSVKGRFTISRDSAKNTLYLQMNTLRPEDTAVYYCAARDRYGSGNSLSPSAYDYWGQGTQVTVSS |

The next lines start with the binder.

| Binder | OD (PE binding ELISA) [1] [OD450 nm] | koff [2] [s⁻¹] |
| --- | --- | --- |
| FJ1427_P035MP04D11 (VHH, VHH in periplasmic extract; also called clone nr) VHH: EVQLVESGGGLVQAGGSLRLSCAASGRTFGAVAVGWFRQVPGKEREFVAAINRSGSATKYADSVKGRFTISRDNAESPVFLQMNSLKPEDTAVYYCAADSLPYGRPYYFQTSAGEYDYWGQGTQVTVSS | 1.41 | 0.0401 |
| 32-MP04A08 (VHH, VHH in periplasmic extract; also called FJ1427_P035MP04A08; clone nr) VHH: QVQLVESGGGLVQAGGSLRLSCAASGRTFGSTAVGWFRQVPGKEREFVSAINRSGSATTYADSVKGRFTISRDNAKNTVYLQMNSLTPEDTGVYYCAADSLPYGRPYYFQRSAGEYDYWGQGTQVTVSS | 0.407 | 0.0616 |
| FJ1427_P035MP04A09 (VHH, VHH in periplasmic extract; also called clone nr) VHH: QVQLVESGGGLVQAGGSLRLSCAASGRTFGAVAVGWFRQVPGKEREFVAAINRNGSATKYADSAKGRFTISRDNAESPVYLQMNSLKPEDTAIYYCAADSLPYGRPYYFQTSAGEYDYWGQGTQVTVSS | 1.23 | 0.0576 |
| FJ1427_P035MP04D12 (VHH, VHH in periplasmic extract; also called clone nr; 380) VHH: QVQLVESGGGWVQVGKSLRLSCAPSGRTFVSGIMGWFRQAPGKEREFVARIILNNNSTRYIDSVKGRFTISRDSAKNTMYLQMDSLRPEDTAVYYCAARDRYGSGNSLSPSAYDYWGQGTQVTVSS | 1.05 | 0.0072 |
| FJ1427_P035MP04E04 (VHH, VHH in periplasmic extract; also called clone nr) VHH: EVQLVESGGGWVQVGESLRLSCVPSGRTFVSGIMGWFRQAPGKEREFVARIILNSNSTRYTDSVKGRFTISRDSAKNTMYLQMNSLRPEDTAVYYCAARDRYGSGNSLSPSAYDYWGQGTQVTVSS | 1.73 | 0.00796 |
| FJ1427_P035MP04E02 (VHH, VHH in periplasmic extract; also called clone nr; 301) VHH: QVQLVESGGGWVQVGESLRLSCAPSGRTFVSGIMGWFRQTPGKEREFVARIILNNNSTRYTDSVKGRFTISRDSAKNTMYLQMNTLRPEDTAVYYCAARDRYGSGNSLSPSAYDYWGQGTQVTVSS | 1.98 | 0.00652 |
| FJ1427_P035MP04E12 (VHH, VHH in periplasmic extract; also called clone nr) VHH: QLQLVESGGGWVQVGESLRLSCAPSGRTFASGIMGWFRQAPGKEREFVARIILNNNSTRYTDSVKGRFTISRDSAKNTMYLQMNTLRPEDTAVYYCAARDRYGSGNSLSPSAYDYWGQGTQVTVSS | 1.33 | 0.00688 |
| 33-MP04C09 (VHH, VHH in periplasmic extract; also called FJ1427_P035MP04C09; clone nr) VHH: QLQLVESGGGLVQAGGSLRLSCAASGPTFSRVAVGWFRQAPGKEREFVAAVNRPATMTKYADSVKGRFTVSRDNAKNTVDLQMNSMKPEDTAVYYCAADSVPYGRPYYWQTSAGDYDYWGQGTQVTVSS | 1.69 | 0.031 |
| FJ1427_P035MP04A04 (VHH, VHH in periplasmic extract; also called clone nr) VHH: QVQLVESGGGLVQAGESLRLSCAASGPTASRVAVAWFRQVPGKEREFVAVVNRPGTMTKYADSVKGRFTISRDSAKNTVYLQMNSLKPEDTAVYYCAADSVPYGRPYYFQTSAGNYDYWGQGTQVTVSS | 1.31 | 0.0378 |
| FJ1427_P035MP04C11 (VHH, VHH in periplasmic extract; also called clone nr) VHH: QVQLVESGGGLVQHGGSLRLSCAASGPTFSRVAVGWFRQVPGKEREFVAVVNRPGSMTKYADSVKGRFNISRDTAKNTVYLQMNSLKPEDTAVYYCAADSVPYGRPYYFTTSAGDYDYWGQGTQVTVSS | 0.912 | 0.0693 |
| FJ1427_P035MP04B03 (VHH, VHH in periplasmic extract; also called clone nr) VHH: QVQLQESGGGLVQAGESLRLSCAASGPTASRVAVAWFRQVPGKEREFVAVVNRPGTMTKYADSVKGRFTISRDSAKNTVYLQMNSLKPEDTAVYYCAADSVPYGRPYYFQTSAGNYDYWGQGTQVTVSS | 1.37 | 0.0421 |

Source: US20240409645A1 (DUALYX, published 2024)
